Measurements reported in patent publication CN1421459A.

What was measured:
人T细胞CD3 (human) [1] = assay: fluorescence staining, flow cytometry, antibody 10 μg/ml; cells not named
人T细胞CD3 (human) [2] = assay: cell-based or functional assay
人T细胞CD3 (human) [3] = assay: fluorescence staining and flow cytometry on CD3-positive HPBLL or Jurkat cells, compared with mOKT3 (Fig. 3)
人T细胞CD3 (human) [4] = assay: flow cytometry on human PBMC, unlabelled huGD3 competing with saturating FITC-mGD3; calculated by the formula [X]-[mGD3]=(1/Kx)-(1/Ka)
人T细胞CD3 (human) [5] = assay: fluorescence staining, flow cytometry, antibody 1 μg/ml; cells not named
人T细胞CD3 (human) [6] = assay: fluorescence staining, flow cytometry, antibody 0.1 μg/ml; cells not named

Sequence of 人T细胞CD3 (human) (P07766 23-207, chain 1 of 4): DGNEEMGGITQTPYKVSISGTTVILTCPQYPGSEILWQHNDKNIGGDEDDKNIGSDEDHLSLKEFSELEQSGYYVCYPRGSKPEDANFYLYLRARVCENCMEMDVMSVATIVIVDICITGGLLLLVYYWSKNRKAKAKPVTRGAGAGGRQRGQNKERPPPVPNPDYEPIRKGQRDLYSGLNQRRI
Sequence of 人T细胞CD3 (human) (P09693 23-182, chain 2 of 4, further chain): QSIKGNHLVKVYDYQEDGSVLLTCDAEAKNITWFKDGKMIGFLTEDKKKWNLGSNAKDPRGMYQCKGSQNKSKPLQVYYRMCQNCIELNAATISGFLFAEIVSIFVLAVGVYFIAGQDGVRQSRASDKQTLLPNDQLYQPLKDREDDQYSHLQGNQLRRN
Sequence of 人T细胞CD3 (human) (P04234 22-171, chain 3 of 4, further chain): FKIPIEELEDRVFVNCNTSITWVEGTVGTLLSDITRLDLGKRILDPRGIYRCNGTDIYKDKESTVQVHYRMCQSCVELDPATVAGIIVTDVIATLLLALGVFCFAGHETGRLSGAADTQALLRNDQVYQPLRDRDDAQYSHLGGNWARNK
Sequence of 人T细胞CD3 (human) (P20963 22-164, chain 4 of 4, further chain): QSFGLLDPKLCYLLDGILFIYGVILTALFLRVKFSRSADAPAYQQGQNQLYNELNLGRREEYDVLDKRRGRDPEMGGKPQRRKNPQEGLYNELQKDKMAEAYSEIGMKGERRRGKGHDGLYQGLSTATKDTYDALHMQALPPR

MFI (人T细胞CD3 (human) [1]): 97 MFI | CD3调变(%), antibody 10^1 ng/ml, human PBMC, 37°C 24 h (人T细胞CD3 (human) [2]): 13.6% | CD3调变(%), antibody 10^2 ng/ml, human PBMC, 37°C 24 h (人T细胞CD3 (human) [2]): 56.9% | CD3调变(%), antibody 10^3 ng/ml, human PBMC, 37°C 24 h (人T细胞CD3 (human) [2]): 70% | CD3调变(%), antibody 10^4 ng/ml, human PBMC, 37°C 24 h (人T细胞CD3 (human) [2]): 85.4% | CD3调变(%), antibody 10^5 ng/ml, human PBMC, 37°C 24 h (人T细胞CD3 (human) [2]): 85.6% | CD3调变(%), antibody 10^-1 ng/ml, human PBMC, 37°C 24 h (人T细胞CD3 (human) [2]): 9.52% | CD3调变(%), antibody column printed '10' (probably 10^0) ng/ml, human PBMC, 37°C 24 h (人T细胞CD3 (human) [2]): 13.2% | 亲和力 relative to mOKT3 (orders of magnitude) (人T细胞CD3 (human) [3]): 2 数量级 | Ka (人T细胞CD3 (human) [4]): 1.6e+09 M⁻¹ | MFI (人T细胞CD3 (human) [5]): 76 MFI | MFI (人T细胞CD3 (human) [6]): 55 MFI
B1: 人源化抗体huGD3 (antibody, human IgG1, V domains shown)
VH: QVQLVQSGGGVVQPGRSLRLSCKASGYTFTSYTMHWVRQAPGKGLEWIGYINPSSGYTKYNQKFKDRFTISADNSKSTAFLQMDSLRPEDTAVYYCARWQDYDVYFDYWGQGTPVTVSS
VL: DIVLTQSPSSLSASVGDRVTITCRASSSVSYMHWYQQTPGKAPKPWIYATSNLASGVPSRFSGSGSGTDYTFTISSLQPEDIATYYCQQWSSNPPTFGQGTKLQITR
